Data: US20200024330A1

B1: PGT-135 (antibody, V domains shown)
VH: QLQMQESGPGLVKPSETLSLSCTVSGDSIRGGEWGDKDYHWGWVRHSAGKGLEWIGSIHWRGTTHYKESLRRRVSMSIDTSRNWFSLRLASVTAADTAVYFCARHRHHDVFMLVPIAGWFDVWGPGVQVTVSS
VL: EIVMTQSPDTLSVSPGETVTLSCRASQNINKNLAWYQYKPGQSPRLVIFETYSKIAAFPARFVASGSGTEFTLTINNMQSEDVAVYYCQQYEEWPRTFGQGTKVDIK
B2: PGT-131 (antibody, V domains shown)
VH: QVQLQESGPGLVKPSETLSLTCTVSGDSINTGHHYWGWVRQVPGKGPEWIAHIHYNTAVLHNPALKSRVTISIFTLKNLITLSLSNVTAADTAVYFCVRSGGDILYYIEWQKPHWFYPWGPGILVTVSS
VL: QSALTQPPSASGSLGQSLTISCSGTGSDIGSWNFVSWYQQFPGRAPNLIIFEVNRRRSGVPDRFSGSKSGNTASLTVSGLRSEDEAEYFCSSLSGRWDIVFGGGTKVTVL

Key:
Assay in all cases: cell-based or functional assay
[1] = molecular target: Env of the clade A HIV-1 pseudoviruses of the cross-clade 162-pseudovirus panel (n = 26)
[2] = molecular target: Env of the clade AG HIV-1 pseudoviruses of the cross-clade 162-pseudovirus panel (n = 10)
[3] = molecular target: Env of the clade D HIV-1 pseudoviruses of the cross-clade 162-pseudovirus panel (n = 25)
[4] = molecular target: Env of the clade G HIV-1 pseudoviruses of the cross-clade 162-pseudovirus panel (n = 15)
[5] = molecular target: HIV-1 Env of isolate JR-CSF (HIV-1) (UniProt P20871)
[6] = molecular target: HIV-1 JR-CSF Env D325A (HIV-1 isolate JR-CSF) (UniProt P20871)
[7] = molecular target: HIV-1 JR-CSF Env D417A (HIV-1 (isolate JR-CSF)) (UniProt P20871)
[8] = molecular target: HIV-1 JR-CSF Env E321aA (HIV-1 isolate JR-CSF) (UniProt P20871)
[9] = molecular target: HIV-1 JR-CSF Env F317A (HIV-1 isolate JR-CSF) (UniProt P20871)
[10] = molecular target: HIV-1 JR-CSF Env I307A (HIV-1 JR-CSF) (UniProt P20871)
[11] = molecular target: HIV-1 JR-CSF Env I326A (HIV-1 isolate JR-CSF) (UniProt P20871)
[12] = molecular target: HIV-1 JR-CSF Env I414A (HIV-1 (isolate JR-CSF)) (UniProt P20871)
[13] = molecular target: HIV-1 JR-CSF Env K305A (HIV-1 JR-CSF) (UniProt P20871)
[14] = molecular target: HIV-1 JR-CSF Env K343A (HIV-1 isolate JR-CSF) (UniProt P20871)
[15] = molecular target: HIV-1 JR-CSF Env K421A (HIV-1 (isolate JR-CSF)) (UniProt P20871)
[16] = molecular target: HIV-1 JR-CSF Env N241A (HIV-1 JR-CSF) (UniProt P20871)
[17] = molecular target: HIV-1 JR-CSF Env N262A (HIV-1 JR-CSF) (UniProt P20871)
[18] = molecular target: HIV-1 JR-CSF Env N276A (HIV-1 JR-CSF) (UniProt P20871)
[19] = molecular target: HIV-1 JR-CSF Env N295A (HIV-1 JR-CSF) (UniProt P20871)
[20] = molecular target: HIV-1 JR-CSF Env N301A (HIV-1 JR-CSF) (UniProt P20871)
[21] = molecular target: HIV-1 JR-CSF Env N332A (HIV-1 isolate JR-CSF) (UniProt P20871)
[22] = molecular target: HIV-1 JR-CSF Env N339A (HIV-1 isolate JR-CSF) (UniProt P20871)
[23] = molecular target: HIV-1 JR-CSF Env N386A (HIV-1 isolate JR-CSF) (UniProt P20871)
[24] = molecular target: HIV-1 JR-CSF Env N396A (HIV-1 (isolate JR-CSF)) (UniProt P20871)
[25] = molecular target: HIV-1 JR-CSF Env N411A (HIV-1 (isolate JR-CSF)) (UniProt P20871)
[26] = molecular target: HIV-1 JR-CSF Env Q337A (HIV-1 isolate JR-CSF) (UniProt P20871)
[27] = molecular target: HIV-1 JR-CSF Env Q422A (HIV-1 (isolate JR-CSF)) (UniProt P20871)
[28] = molecular target: HIV-1 JR-CSF Env R315A (HIV-1 isolate JR-CSF) (UniProt P20871)
[29] = molecular target: HIV-1 JR-CSF Env R327A (HIV-1 isolate JR-CSF) (UniProt P20871)
[30] = molecular target: HIV-1 JR-CSF Env S334A (HIV-1 isolate JR-CSF) (UniProt P20871)
[31] = molecular target: HIV-1 JR-CSF Env S393A (HIV-1 (isolate JR-CSF)) (UniProt P20871)
[32] = molecular target: HIV-1 JR-CSF Env T202A (HIV-1 JR-CSF) (UniProt P20871)
[33] = molecular target: HIV-1 JR-CSF Env T303A (HIV-1 JR-CSF) (UniProt P20871)
[34] = molecular target: HIV-1 JR-CSF Env T319A (HIV-1 isolate JR-CSF) (UniProt P20871)
[35] = molecular target: HIV-1 JR-CSF Env T320A (HIV-1 isolate JR-CSF) (UniProt P20871)
[36] = molecular target: HIV-1 JR-CSF Env T388A (HIV-1 (isolate JR-CSF)) (UniProt P20871)
[37] = molecular target: HIV-1 JR-CSF Env T394A (HIV-1 (isolate JR-CSF)) (UniProt P20871)
[38] = molecular target: HIV-1 JR-CSF Env V292A (HIV-1 JR-CSF) (UniProt P20871)
[39] = molecular target: HIV-1 Env of isolate 92TH021 (HIV-1)

| Binder | Median IC50 against viruses neutralized with an IC50 <50 µg/ml [1] [µg/mL] | Median IC50 against viruses neutralized with an IC50 <50 µg/ml [2] [µg/mL] | Median IC50 against viruses neutralized with an IC50 <50 µg/ml [3] [µg/mL] | Median IC50 against viruses neutralized with an IC50 <50 µg/ml [4] [µg/mL] | Fold IC50 increase relative to wild-type [6] [fold] | Fold IC50 increase relative to wild-type [7] [fold] | Fold IC50 increase relative to wild-type [8] [fold] | Fold IC50 increase relative to wild-type [9] [fold] | Fold IC50 increase relative to wild-type [10] [fold] | Fold IC50 increase relative to wild-type [11] [fold] | Fold IC50 increase relative to wild-type [12] [fold] | Fold IC50 increase relative to wild-type [14] [fold] | Fold IC50 increase relative to wild-type [15] [fold] | Fold IC50 increase relative to wild-type [16] [fold] | Fold IC50 increase relative to wild-type [17] [fold] | Fold IC50 increase relative to wild-type [18] [fold] | Fold IC50 increase relative to wild-type [19] [fold] | Fold IC50 increase relative to wild-type [20] [fold] | Fold IC50 increase relative to wild-type [21] [fold] | Fold IC50 increase relative to wild-type [22] [fold] | also measured |
| --- | --- | --- | --- | --- | --- | --- | --- | --- | --- | --- | --- | --- | --- | --- | --- | --- | --- | --- | --- | --- | --- |
| B1 | 0.64 | 27.4 | 1.09 | 0.14 | 0.5 | 5 | 0.8 | 0.5 | 0.3 | 1.2 | 1.2 | 1.1 | 0.3 | 0.1 | 2.1 | 2.5 | > 18 | 0.5 | > 250 | 1.2 | Primary Neutralization Index (B cell culture well 5343 B8) [5]: 1.8; Primary Neutralization Index (B cell culture well 5344 E16) [5]: 1.5; Fold IC50 increase relative to wild-type [13]: 0.2 fold; Fold IC50 increase relative to wild-type [23]: 0.3 fold; Fold IC50 increase relative to wild-type [24]: 1 fold; Fold IC50 increase relative to wild-type [25]: 0.2 fold; Fold IC50 increase relative to wild-type [26]: 2.1 fold; Fold IC50 increase relative to wild-type [27]: 0.8 fold; Fold IC50 increase relative to wild-type [28]: 1.8 fold; Fold IC50 increase relative to wild-type [29]: 0.67 fold; Fold IC50 increase relative to wild-type [30]: > 30 fold; Fold IC50 increase relative to wild-type [31]: 0.9 fold; Fold IC50 increase relative to wild-type [32]: 1.8 fold; Fold IC50 increase relative to wild-type [33]: 0.3 fold; Fold IC50 increase relative to wild-type [34]: 0.4 fold; Fold IC50 increase relative to wild-type [35]: 0.5 fold; Fold IC50 increase relative to wild-type [36]: 0.1 fold; Fold IC50 increase relative to wild-type [37]: > 75 fold; Fold IC50 increase relative to wild-type [38]: 2 fold |
| B2 | 0.09 | 0.18 | 0.85 | 3.54 | > 170 | 1 | 1.8 | 96 | > 170 | 1.7 | 1 | 1.1 | 11 | 0.7 | 0.4 | 0.8 | 2.1 | > 170 | 0.5 | 1 | Primary Neutralization Index (B cell culture well 5136 H1) [39]: 354; Primary Neutralization Index (B cell culture well 5136 H1) [5]: 6.2; Fold IC50 increase relative to wild-type [23]: 1.1 fold; Fold IC50 increase relative to wild-type [24]: 0.9 fold; Fold IC50 increase relative to wild-type [25]: 0.6 fold; Fold IC50 increase relative to wild-type [26]: 1.3 fold; Fold IC50 increase relative to wild-type [27]: 1.9 fold; Fold IC50 increase relative to wild-type [28]: 0.7 fold; Fold IC50 increase relative to wild-type [29]: 19 fold; Fold IC50 increase relative to wild-type [30]: 0.4 fold; Fold IC50 increase relative to wild-type [31]: 1.1 fold; Fold IC50 increase relative to wild-type [32]: 2.7 fold; Fold IC50 increase relative to wild-type [33]: > 170 fold; Fold IC50 increase relative to wild-type [34]: 0.9 fold; Fold IC50 increase relative to wild-type [35]: 4.5 fold; Fold IC50 increase relative to wild-type [36]: 0.6 fold; Fold IC50 increase relative to wild-type [37]: 0.9 fold; Fold IC50 increase relative to wild-type [38]: 1.4 fold |
